Measured values published in article PMC10760634.
Blank lines part the entries; values can stand above or below the substance they belong to.

Columns and labels:
[1] = molecular target: UBE2D2∼Ub (ubiquitin-conjugated UBE2D2 S22R/C85K) (UniProt P62837); experiment: ITC
[2] = molecular target: UBE2D2∼Ub (ubiquitin-conjugated UBE2D2 S22R/C85K) (UniProt P62837); experiment: SEC
[3] = molecular target: the PHD and PHF7 (KD values in the range of 3–6 µM); experiment: MST

Chain of PHF7 (mPHF7 28–307) (Q9DAG9 28-307): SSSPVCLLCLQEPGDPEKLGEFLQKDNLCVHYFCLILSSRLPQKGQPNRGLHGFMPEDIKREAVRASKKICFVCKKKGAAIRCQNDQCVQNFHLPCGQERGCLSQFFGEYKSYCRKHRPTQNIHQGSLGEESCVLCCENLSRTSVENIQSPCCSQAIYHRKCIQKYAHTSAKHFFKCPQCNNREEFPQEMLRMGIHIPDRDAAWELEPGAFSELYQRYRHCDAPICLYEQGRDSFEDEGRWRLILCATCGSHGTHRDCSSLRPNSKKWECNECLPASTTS

Kd [1]: 400 nM
fold stronger affinity than for UBE2D2 alone [1]: 3 fold
stoichiometry N [2]: 1
Substance: PHF7 (mPHF7 28–307) (from UniProt Q9DAG9 28-307) (domain or fragment)

Kd [3]: 3000 to 6000 nM
Substance: H3K4me2(1–44) (from UniProt P84233 2-45) (peptide)

fold lower affinity than PHF7 [1]: 7 fold
Substance: PHF7 RING–PHD (150–307) C164A (from UniProt Q9DAG9 150-307) (domain or fragment)
